This note sets out measurements from patent US20110142851A1 (EMERGENT PRODUCT DEVELOPMENT SEATTLE, published 2011).

The chains are these.
B2: recombinant human soluble IL6 receptor (receptor)
chain: LAPRRCPAQEVARGVLTSLPGDSVTLTCPGVEPEDNATVHWVLRKPAAGSHPSRWAGMGRRLLLRSVQLHDSGNYSCYRAGRPAGTVHLLVDVPPEEPQLSCFRKSPLSNVVCEWGPRSTPSLTTKAVLLVRKFQNSPAEDFQEPCQYSQESQKFSCQLAVPEGDSSFYIVSMCVASSVGSKFSKTQTFQGCGILQPDPPANITVTAVARNPRWLSVTWQDPHSWNSSFYRLRFELRYRAERSKTFTTWMVKDLQHHCVIHDAWSGLRHVVQLRAQEEFGQGEWSEWSPEAMGTPWTESRSPPAENEVSTPMQALTTNKDDDNILFRDSANATSLPVQD
notes: also called sIL6R; sIL-6R

Test [1] addresses B2. The experiment in a line: ELISA, Xceptor captured by anti-human Fc. (An ELISA detects its analyte on a solid surface through an enzyme-linked reagent.)
The target in a further test is T1, sIL6R Fc dimer (UniProt P08887 20-358, limits assumed).
T1 construct: not shown: Fc
T1 sequence (looked up): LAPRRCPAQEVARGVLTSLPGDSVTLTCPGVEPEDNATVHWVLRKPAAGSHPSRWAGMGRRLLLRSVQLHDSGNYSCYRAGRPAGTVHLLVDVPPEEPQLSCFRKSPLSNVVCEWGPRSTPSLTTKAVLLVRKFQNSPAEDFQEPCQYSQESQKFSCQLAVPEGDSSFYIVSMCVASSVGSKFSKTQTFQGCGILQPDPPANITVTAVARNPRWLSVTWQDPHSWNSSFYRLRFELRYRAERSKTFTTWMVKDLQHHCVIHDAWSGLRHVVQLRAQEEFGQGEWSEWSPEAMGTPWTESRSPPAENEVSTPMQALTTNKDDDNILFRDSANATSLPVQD
The test can be described thus: SPR Biacore T100, binder captured by anti-human Fc. On the technique in general: SPR reads the build-up and loss of mass on a sensor chip optically.

For a further test, the target named is T2, hu HIL6 AFH monomer (human).
T2 chain: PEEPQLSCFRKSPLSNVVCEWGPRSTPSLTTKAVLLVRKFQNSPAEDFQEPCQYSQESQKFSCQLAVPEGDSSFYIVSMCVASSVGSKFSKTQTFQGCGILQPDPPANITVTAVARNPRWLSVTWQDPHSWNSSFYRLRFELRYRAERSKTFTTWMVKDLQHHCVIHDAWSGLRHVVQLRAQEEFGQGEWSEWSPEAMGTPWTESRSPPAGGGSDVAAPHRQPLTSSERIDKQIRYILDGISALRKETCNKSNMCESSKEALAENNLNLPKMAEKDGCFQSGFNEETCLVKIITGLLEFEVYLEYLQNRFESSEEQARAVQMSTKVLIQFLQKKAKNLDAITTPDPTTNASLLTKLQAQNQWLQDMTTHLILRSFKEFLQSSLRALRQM
The experiment in a line: SPR Biacore T100, binder captured by anti-human Fc.

Test [2] has as its target T3, hu HIL6 Fc dimer (dimeric human HIL6/mouse IgG Fc fusion protein) (human).
T3 construct: also called human hyper-IL6 (IL6R-IL6-mIgG); dimeric HIL6
T3 chain: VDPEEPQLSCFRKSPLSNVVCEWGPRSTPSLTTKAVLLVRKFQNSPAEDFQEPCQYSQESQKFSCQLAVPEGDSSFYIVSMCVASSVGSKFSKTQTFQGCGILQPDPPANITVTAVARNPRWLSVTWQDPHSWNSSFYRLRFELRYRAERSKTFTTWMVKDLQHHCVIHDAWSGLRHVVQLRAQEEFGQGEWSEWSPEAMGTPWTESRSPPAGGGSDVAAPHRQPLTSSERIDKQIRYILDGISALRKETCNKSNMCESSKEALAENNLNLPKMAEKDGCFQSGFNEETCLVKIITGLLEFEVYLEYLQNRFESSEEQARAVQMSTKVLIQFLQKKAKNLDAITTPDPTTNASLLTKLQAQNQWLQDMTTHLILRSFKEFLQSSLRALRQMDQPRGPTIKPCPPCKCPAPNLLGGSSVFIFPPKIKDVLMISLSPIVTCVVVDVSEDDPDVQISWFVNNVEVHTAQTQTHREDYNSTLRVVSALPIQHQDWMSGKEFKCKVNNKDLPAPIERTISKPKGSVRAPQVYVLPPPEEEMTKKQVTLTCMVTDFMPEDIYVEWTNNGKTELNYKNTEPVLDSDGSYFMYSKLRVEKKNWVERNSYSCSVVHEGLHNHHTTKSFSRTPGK
The test can be described thus: SPR Biacore T100, binder captured by anti-human Fc.

A further test addresses T4, recombinant human TNF-α (human, UniProt P01375 77-233).
T4 construct: also called rhTNFα
The experiment in a line: SPR Biacore T100, binder captured by anti-human Fc.

In a further test the target is T5, TRU(XT6)-1042.
T5 construct: Xceptor, TNFRSF1B ectodomain N-terminal, anti-IL6xR domain C-terminal
The test can be described thus: ELISA, Xceptor captured by anti-human Fc.

T4 sequence (P01375 77-233 limits assumed): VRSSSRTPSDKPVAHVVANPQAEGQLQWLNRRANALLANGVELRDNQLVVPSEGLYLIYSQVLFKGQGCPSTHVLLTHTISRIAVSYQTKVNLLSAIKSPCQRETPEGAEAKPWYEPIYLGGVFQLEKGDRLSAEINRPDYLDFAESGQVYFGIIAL

B1: TRU(XT6)-1002 (Fc fusion)
chain: LPAQVAFTPYAPEPGSTCRLREYYDQTAQMCCSKCSPGQHAKVFCTKTSDTVCDSCEDSTYTQLWNWVPECLSCGSRCSSDQVETQACTREQNRICTCRPGWYCALSKQEGCRLCAPLRKCRPGFGVARPGTETSDVVCKPCAPGTFSNTTSSTDICRPHQICNVVAIPGNASMDAVCTSTSPTRSMAPGAVHLPQPVSTRSQHTQPTPEPSTAPSTSFLLPMGPSPPAEGSTGDTGEPKSSDKTHTCPPCPAPEAAGAPSVFLFPPKPKDTLMISRTPEVTCVVVDVSHEDPEVKFNWYVDGVEVHNAKTKPREEQYNSTYRVVSVLTVLHQDWLNGKAYACAVSNKALPAPIEKTISKAKGQPREPQVYTLPPSRDELTKNQVSLTCLVKGFYPSDIAVEWESNGQPENNYKTTPPVLDSDGSFFLYSKLTVDKSRWQQGNVFSCSVMHEALHNHYTQKSLSLSPGQRHNNSSLNTRTQKARHSPNSEVQLLESGGGLVQPGGSLRLSCAASGFTFSFYQMHWVRQAPGKGLEWVSGIYPSGGYTKYADSVKGRFTISRDNSKNTLYLQMNSLRAEDTAVYYCARDLGYGSSWYYFDYWGQGTLVTVSSGGGGSGGGGSGGGGSQSALTQPASVSGSPGQSITISCSGTDSDVGGYNHVSWYQQHPGKAPKLIIYDVDHRPSGISNRFSGSKSGNTASLTISGLQAEDEADYYCSSYRSGSTYVFGTGTKVTVL
notes: The entry holds a signal peptide that the mature protein lacks
On to B1, for which the binding result in test [1] is given as “no binding (tested: 75 pM sIL-6R)”; with sIL6R Fc dimer it was “no binding (tested: 100 nM)”. For the same molecule, the Kd (commonly the free concentration of one partner at which half of the binding sites on the other are occupied at equilibrium, for simple one-to-one binding) in the test with hu HIL6 AFH monomer was determined as 4.9 nM; in test [2] it was 61 nM; with recombinant human TNF-α it was 0.0031 nM.
With B2, the binding result with TRU(XT6)-1042 is “no binding (tested: 75 pM sIL-6R)”.
